In the DeepSol protein solubility set:

Assay: soluble on expression in E. coli; label from the status in PepcDB or PDB records

Sequence	soluble on expression in E. coli
MSLRDGKHIRTKLTPQKDRGESSYRIGLYIRDSAAGIGTMTFVHPDSMKYGALGHVISDNDTKKPIQVEDGQIMRSTVTSIERGSHGNPGEKLARFSPDREVIGNITINSPFGIFGKLNTNMTNGVMDKAMPIALSHQVKEGPAKILTVIDQDKVEAFDIEVVSTVPQKFPATKGMVIKVTDKRLLAKTGGIVQGMSGSPIVQNGKVIGAVTHVFVNDPTSGYGVHIEWMLHEAGINIYDQERKASEGHHHHHH	soluble
MSLRDHGAPYGAHTLAYRPSGELLLVRHEGVDMWVLPGGELDRGESFQEAALRELGEESGIEATIEGLGMLGRVEFYCDGNMAWGVLPVYEAQAETTDIAVDDPDHEISEAQWFDKLPADTRDREEILQWRGQRFSGREGHHHHHH	soluble
MSLREEIKVAVLRMEGTNCEDETVKAFRSLGVEAEAVHIKQFYSDMIRFEEQRSVFDYQCLVFPGGFSAGDYIRAGAIFSARVKSVLRKDIEEFIKMGYPILGICNGFQVLVELGALPGFDEDKPLAEKPEMALAMNDSSRFECRPTLLKKESEKCIFVKNLKKDVVMFPVAHAEGKVVFPSGKEDEYLERLTSNDQIVFRYVDEKGDYAGYPWNPNGSFYNIAGICNATHTVFGLMPHPERAFFGYQVGRREGYGDGYCIFRSVVDYLEEGHHHHHH	not soluble
MSLRESCKKDLSAGESIRKTRRISVMRSASGNETFGVICRTLYGDFIQFSTKQIVVMSTLFRSLSMSSSAGDSNLFTGNSALKNDSVVAGKPEWAQNSRRRVIPSHLAPKKKTGFHLSSSVSTRKSGGDKKDVFQAENGGEFNLLSFGTNQKRLGTGSFDRVNANSSFFDTSFAGDLTRFDDAVNSSKTQDDFLVYTNDEDMPPSRSIYDLNDEVLISLKSLQNNNEDKTSDANDPKNFRNIFVRDAPKASPSEDSNDQAKQLSNGELAILVFGYPETMANQVIAYFQEFGTILEDFEVLRKPQAMTVGLQDKQFVPIFSGNSWTKITYDNPASAVDALLENGAVFNGVLLGVIPYTKDAVERLQKRKLTSSEDIGSGITTAAAEGHHHHHH	soluble
MSLRFVDDEGHYNVSFFHVNDVHAHLDQFASSGTSCDDPEKGCYGGYARIKTKVTELREQYPDNLWLNAGDEFQGTLFYTYYGGEKIAETLNELKFDAMTLGNHEWDGGDEALGQFLLNLTFPIVSCNVKSEVESLNETIKNYHIFEEHEIAVIGATTTTTPGISSVGNTTTFLDPVAEVQKAVWQIRNETEVNRIILLSHLGYEEDQDLAAKTEGISLIIGGHSHTLLGDMEDAKGDYPTMVEDLNGHEVFIVTAYRWGEYLGAIDLTFDDDGHALAYHGAPIHMDNSTSLDEELDTKIQGWAEAFADFAAEVLGETDAVLVQETCQEGDCLLGQVMADAMYEYRYNQTEGTDDEPALALINSGGVRAEINEGPITRGEVLTAFPFGNAIVELEFSGADLRKILEGAVSYVNQFNGDEITSWFQVSRGVRIEFNPDNEPGDRLVNVTIQGEAIDDERDYRVVTLDFLAGGGDSIFVATDDFITLDTQDEVLTQYIVARTPLSPELEERVVENDGEGHHHHHH	soluble
MSLRIFKHQGCSAVKIRSTALVKGFRQSAPYVNAHRGKTMVVMLGGEAIADKNFPNIISDIALLHSLGVKVVLVHGARPQINQILEKNQRDTPYHKGVRITDESSLGLVMQAAGQLQHAITARLSMSLNNTPMAGTQLNVVSGNFIISQPLGIDEGVDYCHSGRIRRIDVEGINRMLDLGSIVLLGPIASSVTGECFNLLSEEVATQVAIKLKADKLIGFCPQQGIIDTKGNAIAELFPSDVERLVKSMEQECAPDDEECFSTMRFLRAALKACRAGVPRSHLVSYKEDGALIQELFSFDGIGTQIVMASAEQIRQATIDDIGGIFDLIRPLEEQGILVRRSREQLEQEIHKFTIIDKDGLVIGCSALYPYPEERMAEMACVAIHPEYRDGHRGLHLLVHSKHQAKQMGIRHLFVLTTHSTHWFREQGFNEVDVEALPMAKKSLYNYQRRSKILMLQLEGHHHHHH	not soluble
MSLRILAIDTATEACSVALWNNGTINAHFELCPREHTQRILPMVQEILAASGASLNEIDALAFGRGPGSFTGVRIGIGIAQGLALGANLPMIGVSTLATMAQGAWRKTGATRVLAAIDARMGEVYWAEYQRDAQGVWQGEETEAVLKPERVGERLKQLSGEWATVGTGWSAWPDLAKECGLTLHDGEVSLPAAEDMLPIASQKLAAGETVAVEHAEPVYLRNEVAWKKLPGKEEGHHHHHH	soluble
MSLRKFIDLHLHLDGSVPVSTVKKLMQEHDLPIPTDQELRQELSVDSSCKSLDQFLEKFALPNKLMQTRHDLETIVYDLLTELKAQGLVYAEIRFAPQLHTKEGLTQEDAIKAAISGLNKFLYDQKEKNDSPELHAGLILCLMRFSNNQKENIETVELAKKFLNKGVVGLDLAGAEGPIPNIKYKSFFNQAQQLGVPYTIHAGEADGPDSIRQALAMGAKRIGHGIRCTEDTQLTQELIDQQIVLECCATSNMNTKAFDQIDSYPIKKLLHKGMKVTLNSDDMTVSDTNLLHEYKVLEKRTDLTPEEETTLYLNAVDAAFTTPDEKIRLRAFLQKEGHHHHHH	soluble
MSLRKGIIAAGNMLVDHVHQIRQWPERGWLVEIVHSERATGGAPLNVLLTLAKMHAGLPLQAVGLIGEDNDGDYITAMLDQYHINRQLVQRTSSAPTSMTQVMTDAEGQRTFFHSPGANRLLDLPAFEPLDAPLKIFHLGYLLLLESLDRPDEVYGTRSARLLAQMRERGYEVSLDLVSRKGDPRYRPLVLPALKHLDYLTINELEASEFSGLEIRLPNGEPHVANIARAASALLDAGVRQRVVIHCPEGAWGVSRTEAGRWVPSWRLPPEEIIGSVGAGDAFCAGLLYGSHERWPLTASLQLAHACARASLQAANAIDGAKTLPELQAFIQLQNGEGHHHHHH	soluble
MSLRKPNEKTMKTKFCRTAVYCLCCFMFIQPITGSQVNDTHEGVLHIDKQKTRKVSRVQYGFHYEEIGMIGEGALHAELVRNRSFEEATPPADLAVKNGLYQNVPNPRGKNKDVFHVDPLIGWNTYPLSYTPIFISRTEENPLNKENKYSMLVNVTEDIANNPEAMILNRGYYGMNLRKEVSYHLSMYIKSKNYTALLQVMLVDEQGKPVSTQLVLDVKGKEWTKLTGTLKPDKDVKRGMLAIQPLGKGQFQLDVVSLFPSDTWDNGKSVFRADIMQNLKEYAPDFIRFPGGCIVHGVNEATMYHWKKTIGPIENRPGQWSKWAPYYRTDGIGYHEFYELCEYLGADAMYVIPTGMICTGWVKQSSPWNFIQPDVDLDAYIQDALDAIEYAIGPETSKWGALRVKNGHPKPFPLKYIEIGNEDFGPVYWERYEKIYQALHRQYPDLIYIANSIIGKENDDKRIDIAKFVNPKNVKVFDEHHYQPVEWACKQHYRFDNYERGIADLFVGELGIDGKYPYNLLASGAVRMSLERNGDLNPLLAERPVMRHWDFSEHRQLHSMLINGVDCSIRTSFYYLSKMFRDHTFDVCLDAGIQGMKGLQNVFVTMGYDSESKEYILKLINLRKQEVVLQTAVKGFGKKIQAQKITLSLEPGKNNTPEMPDAVKPVQSTVTLDLNKDLQLEASSMIVYRFKEGHHHHHH	soluble
MSLRKRIIEVSTDYKILIVDDEEGIINSMKVMLTRSGYFCMGISNPLEAIETLKKEHFDMLILDYIMSPIHGDEVVAKIREFNKDIYILLLTGHKDLAPPLETIKALDIQGYCEKGDKFDQLLLLIESGIKSISQMRTIRQFKDGLNRILQAVPKIYQLQPIGVILEEILQGLMPLVNSKDAFILVDDCNSGEGKIIFKGVGEYDIKAESLVTMLSPELMENIGRARDSKKVLLLDHGIILPLTNEQNKSIGVIYIESSNLGDGIKLLEIYSTQAASSINNAFLHSLINMKKEELDRTYQELRKRYIDTIEALRLTVDAKDIYTRGHSDRVAYYAVKLGEAFGLPEDQLELLKVGGIFHDIGKIGTADDILFKTDKLSYDEYEEIKKHPLKGAYILSAISMFKDVVPLVKYHHERIDGKGYPEGLKGDEIPFLARILTVADAFDAMMSDRKYRSKLSLEETKEQFRLYSGTQFDPQVVEKLFEILENYDLMLEELSKTFTEGHHHHHH	soluble
MSLRPRMIDWLQARNIGVAVSQSYLAPVVDRAARQEQYRRMVQRSEPLISAYMGVRLPQPIDRIYVFDRAEWIEANLAAFQSLFAPLEELYDEVSARQGMVGILIGQLNSQLIGMQVGALIGFLARRVLGQYDLGLLSPDPDLRGALYFVEPNIARICAQLGLNGDDFRMWIALHETTHVFEFEAFPWVRAYFQDLLRQFIGRVNDQAAMLSVGIVRLIERLLQGQPIDHHWIELMLTPEQREIFTRMQALMSVVEGYSNHIMNAIGAQLLPSYPSIEARVRQRQLRRPLIEEAFNRITGMDLKLAQYQQGEAFINAVVAACGADFANRIWERPENLPTMDEIRAPHRWIARMSGEGHHHHHH	soluble
MSLRRDHTRTAQVTHVESLTNSPGVRENWPGWASPAVVERMVKSGVAKPWSHQVRAANLAHSGSNVIIATGISSGKSLGFLMPCTAAIAEGGSVLYLAPTKALAADQERKLAELAMPGVRAAVYDGDTPMEERSWARAHANYVLTNPDMLHRSIVARHPVWAGFLRRLSYVVVDEAHHYRGVFGSHVAQIMRRLRRVCGCYGAEPRFILASATTATPAETAQQLTGLPVVAVTGDGSARASLRFALVEPELTEKTGEQGAPMRRTATAVAAELLADLVSHEVSTLVFVRSRQAAELVALAAQRALADAGRPELARRVAAYRGGYLAEDRRRLEQRLRSGELLGLATTNALELGVDVSGLDAVVMAGWPGTRASLWQQAGRAGRSGRDALAVFVARDDPLDTYLVHHPDAIFGQDVEATVLDPDNPYVLAPHLCAAAEEEGHHHHHH	not soluble
MSLRTTASEFDNFGYGVSDSLGMRDHVSARDLFVQKFRGKENEMLLCAFDGKHGATNQGHRISLVAKNMFVRNFTKELDEIKNDDEIENALRKAFLNFNKEINGILTAKKNKSFTPVPNMSKEALELNLVDDGNAGCTVSVIYIKDKKLYSANIGDIEALLCRNNGDQFLLTEKHDPTNREEFERIRASGGYVSGGGELDGQLSVSRGVGFFNFLPHTHCGPTIRRFKITNDDDMIILGSKQLWDFISYESAVDIIRKDKNDPMVAAQKLRDFAICYGATDKICVIVLTFGNREGHHHHHH	soluble
MSLRVLGIETSCDETAVAVLDDGKNVVVNFTVSQIEVHQKFGGVVPEVAARHHLKNLPILLKKAFEKVPPETVDVVAATYGPGLIGALLVGLSAAKGLAISLEKPFVGVNHVEAHVQAVFLANPDLKPPLVVLMVSGGHTQLMKVDEDYSMEVLGETLDDSAGEAFDKVARLLGLGYPGGPVIDRVAKKGDPEKYSFPRPMLDDDSYNFSFAGLKTSVLYFLQREKGYKVEDVAASFQKAVVDILVEKTFRLARNLGIRKIAFVGGVAANSMLREEVRKRAERWNYEVFFPPLELCTDNALMVAKAGYEKAKRGMFSPLSLNADPNLNVEGHHHHHH	soluble
MSLRVQANSRSMGVLEDKARARTFYKYLSKVYDRVNTFIWTEEMRAEALSMLDIDAEDRVLDVGCGTGFGTEGLLKHTEHVYGLDQSPHQLTKAWEKFGKHDPVAFHFGDAERLPFKPDSFDVVWSSGSIEYWPHPVQGLRELRRVAKPGSQVLVVGPDYPASTVFRKLADAIMLFYDEDEADRMFREAGYEEIQHRVLRKEPNSPPAIVTVARAPAADDEGHHHHHH	soluble
MSLRYIVVGASAAGISGAKTLRELDKDAEIILVSKDENVYSRCILHHYISGHRDIEALDFTDRDFFEKYNIEWKKGLEVKAIDDREHVIVLSNGESLKYDKILLATGASAFIPPVENLREAKNVVGLRNLEDAIKIKEEAEKVKNVVVLGAGLVGIDAIAGLAFKDLNVTLVEMGDRVLPIQLDKYASSKYEKRFEDAGVKLKLGVRAEKVLIDENKNPKALLINTGEEIPCELIIVATGVRSNVAFLKDSSIETDRFGLIINEKGETNARDVYGAGDITGRNPIWPTAVKEGIIAANNMVGNEIFMEDFFGSKNTMNFLGLTTMSLGVVNAPDDSYTEEIDISGENYKKIIHKDGKIYGAIIQGDLSYAGVLTQLIKEKIHVSKVKKPLFEIDYADFFNIKENLEYTYEGHHHHHH	soluble
